# Assay results from US20210238276A1 (INTEGRAL MOLECULAR, published 2021).
# T1: mouse GLUT1 (mmGLUT1) (mouse, UniProt P17809 1-492)
# T1 construct: whole, on cells
# T1 sequence (looked up): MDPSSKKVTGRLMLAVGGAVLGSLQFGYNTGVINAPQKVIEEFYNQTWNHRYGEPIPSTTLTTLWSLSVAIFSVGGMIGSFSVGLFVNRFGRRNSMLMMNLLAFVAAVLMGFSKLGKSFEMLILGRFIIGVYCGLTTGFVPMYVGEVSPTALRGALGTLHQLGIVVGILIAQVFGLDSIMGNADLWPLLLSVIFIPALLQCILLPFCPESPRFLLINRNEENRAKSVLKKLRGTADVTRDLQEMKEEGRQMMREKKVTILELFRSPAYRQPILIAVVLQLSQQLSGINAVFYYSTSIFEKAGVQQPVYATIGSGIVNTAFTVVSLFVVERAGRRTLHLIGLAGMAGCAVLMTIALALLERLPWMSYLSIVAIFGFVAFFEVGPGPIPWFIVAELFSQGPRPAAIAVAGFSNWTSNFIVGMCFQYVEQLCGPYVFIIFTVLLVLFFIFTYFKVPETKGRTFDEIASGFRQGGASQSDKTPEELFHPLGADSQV
# T2: hsGLUT4 G504A (human, UniProt P14672 1-509)
# T2 sequence: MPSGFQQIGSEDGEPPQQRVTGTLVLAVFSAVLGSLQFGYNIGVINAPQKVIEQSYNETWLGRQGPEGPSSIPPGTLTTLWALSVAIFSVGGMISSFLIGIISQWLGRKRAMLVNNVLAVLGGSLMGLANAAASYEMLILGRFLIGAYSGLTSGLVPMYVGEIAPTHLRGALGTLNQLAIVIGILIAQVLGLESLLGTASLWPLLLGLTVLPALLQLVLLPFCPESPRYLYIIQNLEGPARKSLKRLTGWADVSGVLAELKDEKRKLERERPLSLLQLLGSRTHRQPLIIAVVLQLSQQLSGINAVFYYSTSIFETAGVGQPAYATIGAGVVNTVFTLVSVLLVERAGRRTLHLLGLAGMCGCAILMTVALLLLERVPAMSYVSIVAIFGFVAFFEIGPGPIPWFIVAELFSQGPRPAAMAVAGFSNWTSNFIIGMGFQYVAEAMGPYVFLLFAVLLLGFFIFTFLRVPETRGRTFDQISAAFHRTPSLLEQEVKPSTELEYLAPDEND
# T3: hsGLUT4 E507A (human, UniProt P14672 1-509)
# T3 sequence: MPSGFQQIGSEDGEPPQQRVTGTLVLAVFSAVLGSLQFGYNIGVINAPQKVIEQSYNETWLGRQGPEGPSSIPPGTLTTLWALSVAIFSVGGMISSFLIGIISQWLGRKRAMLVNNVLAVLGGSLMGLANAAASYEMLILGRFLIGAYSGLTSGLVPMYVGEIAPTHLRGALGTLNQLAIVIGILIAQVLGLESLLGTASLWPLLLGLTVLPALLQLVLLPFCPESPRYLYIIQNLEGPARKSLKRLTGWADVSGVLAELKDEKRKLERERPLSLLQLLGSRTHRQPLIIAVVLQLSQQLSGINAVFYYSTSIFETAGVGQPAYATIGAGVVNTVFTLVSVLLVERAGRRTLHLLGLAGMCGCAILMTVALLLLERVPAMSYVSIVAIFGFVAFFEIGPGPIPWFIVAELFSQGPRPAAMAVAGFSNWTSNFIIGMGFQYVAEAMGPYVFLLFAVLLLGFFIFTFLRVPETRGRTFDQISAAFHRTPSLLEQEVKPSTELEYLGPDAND
# T4: hsGLUT4 N304A (human, UniProt P14672 1-509)
# T4 sequence: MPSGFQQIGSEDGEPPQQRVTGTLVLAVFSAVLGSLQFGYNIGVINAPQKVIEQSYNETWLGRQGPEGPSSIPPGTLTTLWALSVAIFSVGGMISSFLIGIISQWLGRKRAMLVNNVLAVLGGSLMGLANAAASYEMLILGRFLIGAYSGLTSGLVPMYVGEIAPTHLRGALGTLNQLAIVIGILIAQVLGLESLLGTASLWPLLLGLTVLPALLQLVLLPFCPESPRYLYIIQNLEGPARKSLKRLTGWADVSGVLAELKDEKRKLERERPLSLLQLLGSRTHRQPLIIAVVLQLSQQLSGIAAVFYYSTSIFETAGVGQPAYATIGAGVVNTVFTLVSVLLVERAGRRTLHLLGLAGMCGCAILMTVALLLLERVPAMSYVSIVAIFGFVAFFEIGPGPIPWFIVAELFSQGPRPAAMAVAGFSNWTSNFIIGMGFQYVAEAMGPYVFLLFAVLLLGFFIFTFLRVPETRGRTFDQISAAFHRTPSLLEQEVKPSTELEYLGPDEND
# B1: AB102 (Fc fusion)
# scFv: ALTQPSSVSANLGGTVKITCSGGGSYGYGWYQQKSPGSAPVTVIYSNDQRPSDIPSRFSGSKSGSTATLTITGVRAEDEAIYYCGSTDSDYVGIFGAGTTLTVLGQSSRSSGGGGSSGGGGSAVTLDESGGGLQTPGGTLSLVCKASGFDFSSYATIWVRQAPGKGLEWVAGISGTGTGSSTGYAPAVKGRATISRDNGQSTVRLQLNNLRAEDTGSYFCAKSTGYGDSWIYPDSIDAWGHGTEVIVSS
# notes: also called MAb AB102; not shown: Fc fragment of human IgG1, cloned in frame with the scFv
# What was measured:
# mouse GLUT1 (mmGLUT1) = target: T1, mouse GLUT1 (mmGLUT1); assay: flow cytometry, permeabilized transfected HEK-293T
# Procedure: HEK-293T cells were transfected by CaPO₄ with plasmids in 6-well culture plates (Falcon) at 750,000 cells/well. At 48 hours post transfection, cells were stained with anti-V5 and anti-GLUT4 MAbs (purified scFv, 2 μg/ml) followed by biotinylated goat anti-mouse or human antibody (1:500) and streptavidin-PerCP (1:500). Fluorescence was detected using an Intellicyt high-throughput flow cytometer (HTFC; Intellicyt, Albuquerque, N. Mex.). For cell permeabilization, cells were treated with saponin at 0.1% in PBS for 20 minutes. To discriminate intact (live) and permeabilized (dead) cells without the use of detergent, propidium iodide (PI) was added to HEK-293T cells at 1 ug/ml just prior to flow cytometry. Where indicated, cytochalasin B (Sigma) was used at a final concentration of 10 uM and phloretin (Sigma) was used at a final concentration of 100 uM, each added in 10% NGS for 30 minutes prior to antibody staining as well as included with the primary antibody.
# hsGLUT4 G504A = target: T2, hsGLUT4 G504A; assay: flow cytometry, alanine-scan library in HEK-293T, with cytochalasin B
# In short: (§1)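 HEK-293T cells expressing individual GLUT4 alanine mutants were stained 48 h post-transfection with anti-GLUT4 scFv MAbs (2 μg/ml), then biotinylated secondary and streptavidin-PerCP, and read by high-throughput flow cytometry. Where used, cytochalasin B (10 uM final) was given for 30 min before and during primary antibody staining.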
# hsGLUT4 E507A = target: T3, hsGLUT4 E507A; assay: as above
# In short: as §1
# hsGLUT4 N304A = target: T4, hsGLUT4 N304A; assay: as above
# In short: as §1
binder,measurement,setting,value
B1,binding result,mouse GLUT1 (mmGLUT1),binds
same,% of binding to wild type GLUT4,hsGLUT4 G504A,71%
same,% of binding to wild type GLUT4,hsGLUT4 E507A,97%
same,% of binding to wild type GLUT4,hsGLUT4 N304A,112%
